Test [1] concerns the target T1, growth differentiation factor 5 (GDF5), wild type (UniProt P43026 382-501).
T1 construct: GDF5, disulfide-linked dimer; also called wild-type GDF5
T1 sequence (looked up): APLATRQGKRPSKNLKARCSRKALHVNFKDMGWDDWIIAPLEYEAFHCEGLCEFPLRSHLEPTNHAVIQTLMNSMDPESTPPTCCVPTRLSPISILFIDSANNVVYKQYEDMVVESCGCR
The test can be described thus: SPR; Biacore T200, 25 °C; GDF5 and BMP2 covalently linked to a CM5 chip by primary amine coupling, RGMs as analytes; 0.5 M NaCl, 20 mM Hepes pH 7.4, 0.05% Tween 20; equilibrium binding, 1:1 Langmuir isotherm; apparent affinity. As to conditions: both partners purified.

In test [2] the target is T1, growth differentiation factor 5 (GDF5), …. The test can be described thus: cell-based or functional assay.
Test [3] deals with T2, growth differentiation factor 5 (GDF5), wild type (human, UniProt P43026 28-501).
T2 construct: GDF5, human, UniProt P43026; Disulfide-linked dimer without glycans; also called BMP14; CDMP1
T2 sequence (looked up): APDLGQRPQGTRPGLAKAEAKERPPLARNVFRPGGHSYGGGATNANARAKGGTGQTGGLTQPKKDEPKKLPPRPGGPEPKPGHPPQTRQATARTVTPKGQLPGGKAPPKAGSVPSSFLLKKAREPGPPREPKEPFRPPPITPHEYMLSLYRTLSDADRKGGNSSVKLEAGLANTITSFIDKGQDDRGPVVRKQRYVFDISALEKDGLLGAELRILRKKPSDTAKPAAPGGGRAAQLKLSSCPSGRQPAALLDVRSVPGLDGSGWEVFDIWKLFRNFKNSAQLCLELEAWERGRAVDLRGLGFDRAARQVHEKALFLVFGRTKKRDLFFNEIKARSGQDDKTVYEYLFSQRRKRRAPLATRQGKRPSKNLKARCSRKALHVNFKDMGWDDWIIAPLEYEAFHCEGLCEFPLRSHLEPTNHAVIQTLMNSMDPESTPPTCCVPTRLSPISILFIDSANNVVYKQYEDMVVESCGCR
In words: SPR; Biacore T200, 25 °C; GDF5 amine-coupled to a CM5 chip (830, 970 or 1370 RU); RGMBND variants or BSA as analytes; 0.5 M NaCl, 20 mM HEPES pH 7.4, 0.05% (v/v) Tween 20; Kd from the dose-dependency of equilibrium binding, 1:1 Langmuir isotherm. As to conditions: both partners purified.

Test [4] deals with T1, growth differentiation factor 5 (GDF5), …. The test can be described thus: SEC-MALS; RGMBND–GDF5 complex, 1 mg/mL, Superdex 200 HR 10/30, 0.5 M NaCl, 20 mM Hepes pH 7.5, 21 °C. As to conditions: both partners purified.
In test [5] the target is T3, GDF5 variant Tyr487Lys/Gln489Asp (UniProt P43026 28-501, Tyr487Lys | Gln489Asp).
T3 construct: GDF5 with Tyr487Lys and Gln489Asp
T3 sequence (looked up): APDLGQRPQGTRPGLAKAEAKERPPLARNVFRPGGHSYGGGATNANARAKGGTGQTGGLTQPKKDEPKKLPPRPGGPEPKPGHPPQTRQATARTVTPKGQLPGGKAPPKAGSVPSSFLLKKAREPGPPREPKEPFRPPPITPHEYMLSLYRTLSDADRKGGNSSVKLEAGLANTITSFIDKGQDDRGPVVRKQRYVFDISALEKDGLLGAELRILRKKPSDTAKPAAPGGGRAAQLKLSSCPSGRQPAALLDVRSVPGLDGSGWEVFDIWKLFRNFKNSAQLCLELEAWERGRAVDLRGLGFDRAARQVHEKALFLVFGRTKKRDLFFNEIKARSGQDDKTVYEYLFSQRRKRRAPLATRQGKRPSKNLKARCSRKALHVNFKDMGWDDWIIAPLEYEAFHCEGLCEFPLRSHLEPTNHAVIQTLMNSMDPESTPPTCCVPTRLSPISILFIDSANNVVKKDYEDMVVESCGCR
The test can be described thus: SEC-MALS; RGMBND–GDF5(Tyr487Lys/Gln489Asp)–ActR2bECD complex, 1 mg/mL, Superdex 200 HR 10/30, 0.5 M NaCl, 20 mM Hepes pH 7.4, 21 °C. Conditions: both partners purified. On the technique in general: Size exclusion chromatography separates by hydrodynamic size, large species first.

In test [6] the target is T4, bone morphogenetic protein 2 (BMP2) (UniProt P12643 283-396).
T4 construct: BMP2, dimeric ligand
The test can be described thus: SPR; Biacore T200, 25 °C; GDF5 and BMP2 covalently linked to a CM5 chip by primary amine coupling, RGMs as analytes; 0.5 M NaCl, 20 mM Hepes pH 7.4, 0.05% Tween 20; equilibrium binding, 1:1 Langmuir isotherm; apparent affinity. Conditions: both partners purified.

Test [7] has as its target T4, bone morphogenetic protein 2 (BMP2). In words: cell-based or functional assay.

T4 sequence (P12643 283-396): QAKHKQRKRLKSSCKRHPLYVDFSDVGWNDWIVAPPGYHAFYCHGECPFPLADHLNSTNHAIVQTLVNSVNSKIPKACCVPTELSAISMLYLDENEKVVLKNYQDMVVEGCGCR

B1: N-terminal domain of human RGMA (RGMAND, Ser46–Ser139) (domain or fragment)
chain: ETGSPCKILKCNSEFWSATSGSHAPASDDTPEFCAALRSYALCTRRTARTCRGDLAYHSAVHGIEDLMSQHNCSKDGPTSQPRLRTLPPAGDSQERS
modifications: Asn-linked glycans cut down to one N-acetylglucosamine for crystallization; kept fully glycosylated for binding assays
notes: Glu-Thr-Gly from the pHLsec vector, after the N-terminal secretion signal; human RGMA, N-terminal domain, residues Ser46–Ser139 of UniProtKB Q96B86-1; source: HEK-293T, transient transfection, secreted, purified (IMAC, SEC)
Consider B1, for which the Kd in test [1] was found to be 16.7 µM.

B2: extracellular domain of human RGMB (RGMBECD, Gln53–Ser411) (domain or fragment)
chain: ETGQCRIQKCTTDFVSLTSHLNSAVDGFDSEFCKALRAYAGCTQRTSKACRGNLVYHSAVLGISDLMSQRNCSKDGPTSSTNPEVTHDPCNYHSHAGAREHRRGDQNPPSYLFCGLFGDPHLRTFKDNFQTCKVEGAWPLIDNNYLSVQVTNVPVVPGSSATATNKITIIFKAHHGCTDQKVYQAVTDDLPAAFVDGTTSGGDSDAKSLRIVERESGHYVEMHARYIGTTVFVRQVGRYLTLAIRMPEDLAMSYEESQDLQLCVNGCPLSERIDDGQGQVSAILGHSLPRTSLVQAWPGYTLETANTQCHEKMPVKDIYFQSCVFDLLTTGDANFTAAAHSALEDVEALHPRKERWHIFPSSGTKHHHHHH
modifications: Asn-linked glycans cut down to one N-acetylglucosamine for crystallization
Take B2: the “GDF5 (30 nM) BMP-responsive luciferase reporter in LLC-PK1 cells expressing full-length membrane-anchored RGMB” value in test [2] is around 3 fold. The Kd in test [1] turned out to be 8.8 µM.

B3: RGMBND Gly101Arg (domain or fragment)
chain: QCRIQKCTTDFVSLTSHLNSAVDGFDSEFCKALRAYAGCTQRTSKACRRNLVYHSAVLGISDLMSQRNCSKDGPTSSTNPEVTH
Consider B3, for which the Kd in test [1] was above 150 µM.

B4: N-terminal domain of human RGMB (RGMBND, Gln53-His136) (domain or fragment)
chain: ETGQCRIQKCTTDFVSLTSHLNSAVDGFDSEFCKALRAYAGCTQRTSKACRGNLVYHSAVLGISDLMSQRNCSKDGPTSSTNPEVTHGTKHHHHHH
B4 showed a Kd in test [3] of 1.8 µM.

B5: RGMBND His106Leu (domain or fragment)
chain: ETGQCRIQKCTTDFVSLTSHLNSAVDGFDSEFCKALRAYAGCTQRTSKACRGNLVYLSAVLGISDLMSQRNCSKDGPTSSTNPEVTHGTKHHHHHH
In turn, B5 yielded a Kd in test [3] above 200 µM.

B6: RGMBND His106Asn (domain or fragment)
chain: ETGQCRIQKCTTDFVSLTSHLNSAVDGFDSEFCKALRAYAGCTQRTSKACRGNLVYNSAVLGISDLMSQRNCSKDGPTSSTNPEVTHGTKHHHHHH
On to B6, for which the Kd in test [3] is above 150 µM.

B7: N-terminal domain of human RGMB (RGMBND, Gln53–His136) (domain or fragment)
chain: ETGQCRIQKCTTDFVSLTSHLNSAVDGFDSEFCKALRAYAGCTQRTSKACRGNLVYHSAVLGISDLMSQRNCSKDGPTSSTNPEVTHGTKHHHHHH
modifications: N-linked glycan on Asn120 (cut down to one N-acetylglucosamine for crystallization; kept fully glycosylated for binding assays); methylated for crystal form 2
Take B7: the “stoichiometry N” value in test [4] was 2 RGMB per disulfide-linked GDF5 dimer (2:2 by chains); in test [5] it was 2 RGMBND per GDF5 dimer (2:2:2 by chains). In addition, the Kd in test [1] was 2.7 µM; in test [6], 20.1 µM.

B8: N-terminal domain of human RGMC (RGMCND, Gln36–Pro145) (domain or fragment)
chain: ETGQCKILRCNAEYVSSTLSLRGGGSSGALRGGGGGGRGGGVGSGGLCRALRSYALCTRRTARTCRGDLAFHSAVHGIEDLMIQHNCSRQGPTAPPPPRGPALPGAGSGLPAP
modifications: Asn-linked glycans cut down to one N-acetylglucosamine for crystallization; kept fully glycosylated for binding assays
notes: Glu-Thr-Gly from the pHLsec vector, after the N-terminal secretion signal; human RGMC (Hemojuvelin), N-terminal domain, residues Gln36–Pro145 of UniProtKB Q6ZVN8-1; also called Hemojuvelin; HFE2; source: HEK-293T, transient transfection, secreted, purified (IMAC, SEC)
With B8, in test [1], the Kd is 3.9 µM.

B9: RGMCND Gly99Arg (domain or fragment, human)
chain: ETGQCKILRCNAEYVSSTLSLRGGGSSGALRGGGGGGRGGGVGSGGLCRALRSYALCTRRTARTCRRDLAFHSAVHGIEDLMIQHNCSRQGPTAPPPPRGPALPGAGSGLPAP
notes: Glu-Thr-Gly from the pHLsec vector, after the N-terminal secretion signal; human RGMC, N-terminal domain, residues Gln36–Pro145 of UniProtKB Q6ZVN8-1, with Gly99Arg; Made by site-directed mutagenesis of the RGMCND construct; also called RGMC Gly99Arg; juvenile hemochromatosis-causing mutation; source: HEK-293T, transient transfection, secreted, purified (IMAC, SEC in SPR running buffer)
Consider B9, for which the Kd in test [1] is above 20 µM.

B10: soluble RGMC extracellular domain (RGMCECD) for the ProteOn SPR studies (domain or fragment, human, UniProt Q6ZVN8 36-400, looked up)
chain: QCKILRCNAEYVSSTLSLRGGGSSGALRGGGGGGRGGGVGSGGLCRALRSYALCTRRTARTCRGDLAFHSAVHGIEDLMIQHNCSRQGPTAPPPPRGPALPGAGSGLPAPDPCDYEGRFSRLHGRPPGFLHCASFGDPHVRSFHHHFHTCRVQGAWPLLDNDFLFVQATSSPMALGANATATRKLTIIFKNMQECIDQKVYQAEVDNLPVAFEDGSINGGDRPGGSSLSIQTANPGNHVEIQAAYIGTTIIIRQTAGQLSFSIKVAEDVAMAFSAEQDLQLCVGGCPPSQRLSRSERNRRGAITIDTARRLCKEGLPVEDAYFHSCVFDVLISGDPNFTVAAQAALEDARAFLPDLEKLHLFPSD
As for B10, the “BMP2 (3 nM) BMP-responsive luciferase reporter in LLC-PK1 cells expressing full-length membrane-anchored RGMC” value in test [7] is around 3 fold.

Usually stoichiometry N stands for the number of molecules, sites or subunits per partner or assembly.

The values are drawn from paper PMC7354924, “Repulsive guidance molecules lock growth differentiation factor 5 in an inhibitory complex” (Proceedings of the National Academy of Sciences of the …, 2020).
